According to US20160311886A1, “Constructs Binding to Phosphatidylserine and Their Use in Disease Treatment and Imaging” (Board of Regents, The University of Texas System, priority 2005, published 2016):
“Also recorded” adds a separate entry of the source. Like-named read-outs stand apart in the source and are kept apart here.

Assays:
[1] = Reactivity of 9D2 and annexin V with plastic-immobilized phospholipids (panel); format: binding
Experimental: (§1) Phospholipids were dissolved in n-hexane to a concentration of 50 μg/ml. 100 μl of this solution was added to wells of 96-well microtiter plates. After evaporation of the solvent in air, the plates were blocked for 2 h with 10% fetal bovine serum diluted in DPBS containing 2 mM Ca^2+ (binding buffer).
(§2) 9D2 antibody or annexin V were diluted in the binding buffer in the presence of 10% serum at an initial concentration of 6.7 nM. Serial two-fold dilutions were prepared in the plates (100 μl per well). The plates were then incubated for 2 h at room temperature. The plates were washed and the 9D2 and annexin V were detected by goat anti-rat IgM conjugated to HRP and rabbit anti-human annexin V followed by goat anti-rabbit IgG conjugated to HRP (all diluted 1:1000), respectively. Secondary reagents were detected by using chromogenic substrate OPD followed by reading plates at 490 nm using a microplate reader (Molecular Devices, Palo Alto, Calif.).
(§3) The specificity of the 9D2 antibody binding was validated by using control rat IgM of irrelevant specificity (Pharmingen, San Diego, Calif.). The specificity of annexin V binding to phospholipids, which is Ca^2+-dependent, was determined by diluting the reagent in the DPBS containing 5 mM EDTA. Additional negative controls consisted of washing the plates with the binding buffer containing 0.2% of a detergent Tween 20. This treatment extracts lipids, thus removing the phospholipid that was absorbed to plastic. Neither 9D2 antibody nor annexin V bound to detergent-washed plates.

[2] = Reactivity with plastic-immobilized phospholipid; settings: read-out: EC50 of binding
Experimental: as §1, §2, §3

[3] = test system: orthotopic MDA-MB-435 and MDA-MB-231 tumors; assay: Macrophage infiltration during 3G4 tumor treatment; format: in vivo, mouse; settings: 100 μg i.p. three times a week for 2-3 weeks
Experimental: (§4) Groups of 8-10 female SCID mice were injected subcutaneously with 2×10^7 L540 cells or orthotopically with 1×10^7 MDA-MB-435 or MDA-MB-231 cells. BALB/c mice were injected subcutaneously with 1×10^6 Meth A cells. Tumors were allowed to grow to an average diameter of 0.8-1 cm (L540), 0.6-0.7 cm (MDA-MB-435), 0.5-0.7 cm (MDA-MB-231), or <0.1 cm (Meth A). […] Animals were monitored three times a week for tumor size and body weight. Mice were sacrificed when tumors in control mice reached a diameter of 1.5-2 cm.

WiDr (colon carcinoma) = assay: WiDr colon carcinoma model; format: in vivo, mouse; settings: 100 μg 3×/week from day 5; preliminary study
Experimental: Treatment was started on day 5, when the tumors were small (10 mice per group). 100 μg of each antibody was injected 3×/week and tumor growth monitored.

[4] = 3G4 reactivity with plastic-immobilized phospholipids and liposome competition; format: binding
Experimental: Phospholipids were dissolved in n-hexane to a concentration of 50 μg/ml. 100 μl of this solution was added to wells of 96-well microtiter plates. After evaporation of the solvent in air, the plates were blocked for 2 h with 10% FBS diluted in DPBS containing 2 mM Ca^2+ (binding buffer). […] Serial two-fold dilutions were prepared in the plates (100 μl per well). The plates were then incubated for 2 hr. at room temperature. […] Secondary reagents were detected by using chromogenic substrate OPD followed by reading plates at 490 nm using a microplate reader (Molecular Devices, Palo Alto, Calif.).
Specificity of phospholipid recognition was further confirmed by competition assays with various liposomes. […] The solutions were dried under nitrogen to form a thin layer in a round-bottomed glass flask. 10 ml of Tris buffer (0.1 M, pH 7.4) were then added and the flask was sonicated five times for 2 min. […] The mixture was added to phospholipid-coated plates.
Liposomes were prepared from solutions of 5 mg of a single phospholipid in chloroform. The solutions were dried under nitrogen to form a thin layer in a round-bottomed glass flask. Ten ml of Tris buffer (0.1 M, pH 7.4) were then added and the flask was sonicated five times for 2 min. […] The mixture was added to PS-coated plates (after standard blocking), incubated for 1 hour, washed and the secondary antibody added. After 1 hour, the plates were washed and developed for 5 minutes using OPD.

[5] = test system: orthotopic MDA-MB-231 tumors; assay: 3G4 tumor treatment and histology; format: in vivo, mouse
Experimental: The general protocol for the animal tumor treatment studies is conducted as follows. Unless particular differences are specified, this is the protocol used throughout the studies of the present application.
For the syngeneic model, Meth A mouse fibrosarcoma tumor cells were used. In one xenogeneic model, human MDA-MB-231 breast tumor cells were seeded into the mammary fat pad. In another xenogeneic model, a large human Hodgkin's lymphoma L540 xenograft was established by injecting cells and allowing the tumor to grow to a size of over 500 mm^3 before treatment. […] Treatment was repeated 3 times a week. Animals were monitored twice a week for tumor measurements.
as §4

bEnd.3 cells = assay: Growth of bEnd.3 cells in vitro; format: cell-based, mouse; settings: 20 μg to 40 μg total IgG per well; 48 and 96 hours
Experimental: 20% DMEM alone (control) or 20% DMEM containing the antibodies (20 μg to 40 μg total IgG per well) was added 4 hours after seeding. Each clone was tested on two separate plates in triplicates. Cells were detached 48 and 96 hours later, the cell count was determined in each well and the average cell number per treatment was calculated.

[6] = Anti-PS ELISA in OVA or sera of different species; format: binding
Experimental: The assay was performed as follows (see also, Ran et al., 2005, specifically incorporated herein by reference). PS-coated Immunlon 1B microtiter plates were blocked overnight in 1% OVA (w/v). […] Dilutions were performed in 1% OVA or 10% non-heat inactivated sera from cow, human, rat or mouse. […] All ELISA studies were performed at least three times.

dendritic cells = assay: DC uptake of apoptotic tumor cells; format: cell-based; settings: Fc(γ)R mediated internalization
Source text: The inventors therefore envision using the anti-PS antibodies of the present invention to enhance both […] and cellular anti-tumor immunity, and boost the efficacy of ATC based DC tumor vaccines.

Molecule: Annexin V: High affinity PS binding ligand; natural ligand binding anionic phospholipids and PE
- binding to heparin, heparan sulfate or double or single stranded DNA [1]: did not bind detectably
- order of strength of binding to phospholipids in ELISA [1]: PI>PS=PE=PA=CL>PG
- effect of EDTA on binding to anionic phospholipids ([1]; 5 mM EDTA): abolished
- EC50 ([2]; CL): 130 pM
- EC50 ([2]; PA): 100 pM
- EC50 ([2]; PC): > 8000 pM
- EC50 ([2]; PE): 100 pM
- EC50 ([2]; PG): 250 pM
- EC50 ([2]; PI): 50 pM
- EC50 ([2]; PS): 100 pM
- EC50 ([2]; SM): > 8000 pM

B1: 3G4: Mouse IgG3 kappa monoclonal antibody to PS and anionic phospholipids; binding mediated by β2-glycoprotein I (antibody, listed as Mus musculus)
VH: MGWTWIFILILSVTTGVHSEVQLQQSGPELEKPGASVKLSCKASGYSFTGYNMNWVKQSHGKSLEWIGHIDPYYGDTSYNQKFRGKATLTVDKSSSTAYMQLKSLTSEDSAVYYCVKGGYYGHWYFDVWGAGTTVTVSSATTTAPSVYPLVP
VL: MDMRAPAQILGFLLLLFPGTRCDIQMTQSPSSLSASLGERVSLTCRASQDIGSSLNWLQQGPDGTIKRLIYATSSLDSGVPKRFSGSRSGSDYSLTISSLESEDFVDYYCLQYVSSPPTFGAGTKLELKRADAAPTVFIFGRIP
- leukocyte binding and infiltration [3]: caused mononuclear leukocytes to bind to the tumor vascular endothelium and infiltrate into the tumor interstitium
- tumor growth (WiDr (colon carcinoma)): slowed tumor growth to essentially the same degree
- binding to neutral phospholipids (PE, PC and SM) in ELISA [4]: does not bind
- binding to anionic phospholipid-coated plates ([4]; 1 mg/ml human β2-glycoprotein I, no serum): Full binding was restored
- effect of EDTA on binding ([4]; 5 mM EDTA): unaffected
- reduction of binding to anionic phospholipid-coated plates ([4]; absence of serum): 90%
- competition by phospholipid liposomes ([4]; liposomes of single phospholipids): blocked by liposomes prepared from PS, PA, PI and CL; also recorded: blocked by liposomes prepared from anionic phospholipids
- mean number of CD-31 positive vessels per square millimeter ([5]; BBG3-treated: 160±20): 50±15 per square millimeter
- reduction in total tumor plasma volume vs BBG3 ([5]; FITC-dextran plasma marker): 60%
- mice with long-term complete remissions ([5]; MDA-MB-231 tumors): 30%
- vessels with disintegration of vascular endothelium ([5]; histological examination): about 50%
- reduction in tumor vascularity ([5]; mouse, in vivo): about 70%
- reduction in microvascular density ([5]; treated vs. untreated mice): 70%
- inhibition of growth of bEnd.3 cells (bEnd.3 cells): particularly effective
- binding to PS ([6]; 10% mouse serum): did not bind PS
- binding to PS ([6]; 10% rat and human serum): bound PS
- binding to PS-coated microtiter plates ([6]; dilutions in 1% OVA, listed as 3G4 purified from SCM): binds PS weakly
- binding to PS-coated microtiter plates ([6]; dilutions in 1% OVA, listed as 3G4 purified from SFM): no longer binds PS
- binding to PS-coated microtiter plates ([6]; dilutions in 10% FBS): binds to PS-coated microtiter plates
- binding to PS ([6]; hamster, ferret, guinea pig, rabbit and monkey serum): bound PS
- enhancement of DC uptake of apoptotic tumor cells (dendritic cells): 300%
